Measurements from US20110136237.

Assays:
[1] = system: Cre recombinase (bacteriophage P1); test: cell_activity; conditions: positive control, S. pombe, day 7
[2] = target: T1, phiC31 integrase (Streptomyces bacteriophage phiC31) (UniProt Q9T221); test: cell_activity; conditions: attP x attB, S. pombe, day 7
T1 sequence: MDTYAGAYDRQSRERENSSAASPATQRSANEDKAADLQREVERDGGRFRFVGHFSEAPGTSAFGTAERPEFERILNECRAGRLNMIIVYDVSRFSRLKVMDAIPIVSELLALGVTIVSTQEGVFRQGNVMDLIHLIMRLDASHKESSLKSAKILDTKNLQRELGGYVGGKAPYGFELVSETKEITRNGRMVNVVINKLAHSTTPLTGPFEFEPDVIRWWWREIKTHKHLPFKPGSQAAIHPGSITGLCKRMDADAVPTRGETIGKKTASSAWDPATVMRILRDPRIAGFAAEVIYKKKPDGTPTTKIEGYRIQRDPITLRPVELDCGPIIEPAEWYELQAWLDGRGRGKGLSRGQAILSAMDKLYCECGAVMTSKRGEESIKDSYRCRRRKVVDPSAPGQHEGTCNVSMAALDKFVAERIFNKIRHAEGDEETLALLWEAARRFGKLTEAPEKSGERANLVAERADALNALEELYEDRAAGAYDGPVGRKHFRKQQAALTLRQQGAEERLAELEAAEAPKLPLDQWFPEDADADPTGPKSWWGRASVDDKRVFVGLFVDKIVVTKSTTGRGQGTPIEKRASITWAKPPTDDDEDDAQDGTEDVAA

| Substance | activity [1] [% excision] | activity [2] [% excision] |
| --- | --- | --- |
| lox | 100 | – |
| phiC31 attP x attB | – | 80 |
